# Reference: patent US11541125B2, “Noncrushable pill formulations” (THE REGENTS OF THE UNIVERSITY OF CALIFORNIA, priority 2016, dated 2023)
# Like-named read-outs stand apart in the source and are kept apart here. Square brackets hold non-standard residues; d marks the D form. Side chains are listed from the residue outwards. Peptide text beside a SMILES is read from it. * marks the point of attachment. ξ: configuration not given here. X2 = CN(CCN*)C(=S)Oc1ccc2c3c1O[C@H]1C(=O)CC[C@@]4(O)[C@@H](C2)N(CC2CC2)CC[C@]314; X1 = CN(CCN*)C(=O)Oc1ccc2c3c1OC1C(=O)CCC4(O)C(C2)N(CC2CC2)CCC314; X4 = CN(CCN*)C(=O)Oc1ccc([N+](=O)[O-])cc1; Trt = c1ccc(C(c2ccccc2)(c2ccccc2)*)cc1; ξF = NC(Cc1ccccc1)C(=O)O; Boc = CC(C)(C)OC(=O)*; ξK = NCCCCC(N)C(=O)O; ξC = NC(CS)C(=O)O; ξA = CC(N)C(=O)O
# What was measured:
# [1] = test system: trypsin and/or chymotrypsin; assay: pNA release assay (absorbance at 405 nm); assay type: biochemical; conditions: 2 mM, incubated with trypsin and/or chymotrypsin, 90 minutes, 37° C.
# Procedure: A stock solution of the CAAK(F)-diamino-pNA was prepared in dimethyl sulfoxide (DMSO) to produce a 16.0 mg/mL solution. A 7.5 mg/mL stock solution of the trypsin was prepared in 50 mM NH4HCO3 buffer (pH=8.05). A 7.5 mg/mL stock solution of chymotrypsin was prepared in 50 mM NH4HCO3 buffer (pH=8.05).
# A 96 well plate was used for monitoring the solutions at 405 nm using a plate reader. 20 μL of the peptide was combined with 62.0/66.6 μL of no enzyme, trypsin only, chymotrypsin only, or with both enzymes respectively. All solutions were diluted to a total volume of 200 μL using 50 mM NH4HCO3 (pH=8.05). Blanks were prepared by combining the enzymes with DMSO/buffer and their absorbances were subtracted from the cleavage conditions. Additionally, the residual signal from the peptide in the presence of no enzymes was also used as a blank and subtracted out from enzymatic conditions.
# [2] = Procedure: In order to determine the stability of the enzymatically cleavable covalent linkage between the dual-enzyme responsive peptide and Naltrexone, the drug conjugates (below) were synthesized and subjected to a range of different pH buffers that were chosen to emulate the pH range of typical household chemicals (pH 2-10).
# The stabilities of these linkages were assessed by HPLC by monitoring the relative amount of Naltrexone versus the intact peptide-Naltrexone conjugate.
# [3] = conjugate sample, no pH buffer named
Structure (SMILES),theoretical pNA released [1] [%],"stability over the entire pH range ([2]; HPLC, pH buffers)","Percent Degradation, t = 0.5 hr [2, 3] [%]","Percent Degradation, t = 24 hr [2, 3] [%]","Percent Degradation, t = 0.5 hr ([2]; in pH 2) [%]","Percent Degradation, t = 0.5 hr ([2]; in pH 4) [%]","Percent Degradation, t = 0.5 hr ([2]; in pH 7) [%]","stability of the linkage relative to the other linkers ([2]; HPLC, Naltrexone versus intact conjugate, pH buffers)","Percent Degradation, t = 24 hr ([2]; in pH 2) [%]"
CC(=O)NC(CS)C(=O)NC(C)C(=O)NC(C)C(=O)NC(CCCCNC(=O)C(N)Cc1ccccc1)C(=O)NCCN(C)C(=O)Oc1ccc([N+](=O)[O-])cc1 (centres unmarked) [CAAK(F)-diamino-pNA] (Ac-CAAK(Phe)-X4; configuration not given here),55,,,,,,,,
CC(=O)NC(CSC(c1ccccc1)(c1ccccc1)c1ccccc1)C(=O)NC(C)C(=O)NC(C)C(=O)NC(CCCCNC(=O)C(Cc1ccccc1)NC(=O)OC(C)(C)C)C(=O)NCCN(C)C(=O)Oc1ccc2c3c1OC1C(=O)CCC4(O)C(C2)N(CC2CC2)CCC314 (centres unmarked) [NPC] (Ac-C(Trt)AAK([Phe-Boc])-X1; configuration not given here),,very good stability,0,0,6.00,3.50,1.50,,
CC(=O)NC(CS)C(=O)NC(C)C(=O)NC(C)C(=O)NC(CCCCNC(=O)C(N)Cc1ccccc1)C(=O)NCCN(C)C(=S)Oc1ccc2c3c1O[C@H]1C(=O)CC[C@@]4(O)[C@@H](C2)N(CC2CC2)CC[C@]314 (some centres unmarked) [NPT] (Ac-[ξC][ξA][ξA][ξK](ξF)-X2),,,0.51,2.90,,,,more stable than the carbamate linker,4.10
